Assay results as given in PMC3836723, “Translation Initiation Factors eIF3 and HCR1 Control Translation Termination and Stop Codon Read-Through in Yeast Cells” (PLoS Genetics, 2013).

Key:
TAP-tagged HCR1 = biological target: T1, TAP-tagged HCR1 (yeast, UniProt Q05775 1-265); assay: pull-down; TAP-tagged chromosomal alleles; cells treated with 1% HCHO before harvest; WCE (1 mg protein) in buffer B (50 mM Tris-HCl pH 7.6, 150 mM NaCl, 0.05% Tween 20) with or without 0.1 mg/ml RNase A; IgG Sepharose 6 Fast Flow beads, 2 h at 4°C; eluted by boiling in SDS buffer or by TEV protease; untagged wt strain as control; Western analysis; conditions: partners not purified
T1 construct: eIF3j/HCR1, yeast; chromosomal TAP-tagged allele; also called eIF3j/HCR1; source: chromosomal TAP-tagged allele, yeast strain H553, cells treated with 1% HCHO, in whole cell extract
T1 sequence (Q05775 whole entry): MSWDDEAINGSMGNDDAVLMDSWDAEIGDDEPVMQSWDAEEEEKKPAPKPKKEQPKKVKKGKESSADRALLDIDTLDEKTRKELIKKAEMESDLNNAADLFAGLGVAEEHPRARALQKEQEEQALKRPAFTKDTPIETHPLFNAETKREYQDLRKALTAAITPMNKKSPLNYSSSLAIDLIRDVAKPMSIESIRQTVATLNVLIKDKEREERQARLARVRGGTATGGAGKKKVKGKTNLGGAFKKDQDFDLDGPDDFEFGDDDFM

Myc-tagged RLI1 = biological target: T2, Myc-tagged RLI1 (yeast, UniProt Q03195 1-608); assay: co-IP; WCE of yeast YDH353 (chromosomal Myc-tagged RLI1), 500 µg total protein, 1 µl mouse anti-Myc-Tag IgG, with or without antibody; lysis in buffer A (30 mM HEPES pH 8.8, 20 mM KAc, 3 mM magnesium acetate, 1 mM DTT, 1% Nonidet P-40); Western analysis; conditions: partners not purified
T2 construct: chromosomal Myc-tagged allele; also called ABCE1/RLI1; source: chromosomal Myc-tagged allele, yeast strain YDH353, in whole cell extract

Binder	percent of input co-purified (TAP-tagged HCR1) [%]	percent of input co-precipitated (Myc-tagged RLI1)
eukaryotic release factor 3 (eRF3) (natural protein, yeast (endogenous in yeast cells), UniProt P05453 1-685, looked up, eRF3 (SUP35), yeast; also called SUP35; source: endogenous, yeast whole cell extract) MSDSNQGNNQQNYQQYSQNGNQQQGNNRYQGYQAYNAQAQPAGGYYQNYQGYSGYQQGGYQQYNPDAGYQQQYNPQGGYQQYNPQGGYQQQFNPQGGRGNYKNFNYNNNLQGYQAGFQPQSQGMSLNDFQKQQKQAAPKPKKTLKLVSSSGIKLANATKKVGTKPAESDKKEEEKSAETKEPTKEPTKVEEPVKKEEKPVQTEEKTEEKSELPKVEDLKISESTHNTNNANVTSADALIKEQEEEVDDEVVNDMFGGKDHVSLIFMGHVDAGKSTMGGNLLYLTGSVDKRTIEKYEREAKDAGRQGWYLSWVMDTNKEERNDGKTIEVGKAYFETEKRRYTILDAPGHKMYVSEMIGGASQADVGVLVISARKGEYETGFERGGQTREHALLAKTQGVNKMVVVVNKMDDPTVNWSKERYDQCVSNVSNFLRAIGYNIKTDVVFMPVSGYSGANLKDHVDPKECPWYTGPTLLEYLDTMNHVDRHINAPFMLPIAAKMKDLGTIVEGKIESGHIKKGQSTLLMPNKTAVEIQNIYNETENEVDMAMCGEQVKLRIKGVEEEDISPGFVLTSPKNPIKSVTKFVAQIAIVELKSIIAAGFSCVMHVHTAIEEVHIVKLLHKLEKGTNRKSKKPPAFAKKGMKVIAVLETEAPVCVETYQDYPQLGRFTLRDQGTTIAIGKIVKIAE	9 ± 0.2	~13 % of the input
eukaryotic release factor 1 (eRF1) (natural protein, yeast (endogenous in yeast cells), UniProt P12385 1-437, looked up, eRF1 (SUP45), yeast; also called SUP45; source: endogenous, yeast whole cell extract) MDNEVEKNIEIWKVKKLVQSLEKARGNGTSMISLVIPPKGQIPLYQKMLTDEYGTASNIKSRVNRLSVLSAITSTQQKLKLYNTLPKNGLVLYCGDIITEDGKEKKVTFDIEPYKPINTSLYLCDNKFHTEVLSELLQADDKFGFIVMDGQGTLFGSVSGNTRTVLHKFTVDLPKKHGRGGQSALRFARLREEKRHNYVRKVAEVAVQNFITNDKVNVKGLILAGSADFKTDLAKSELFDPRLACKVISIVDVSYGGENGFNQAIELSAEALANVKYVQEKKLLEAYFDEISQDTGKFCYGIDDTLKALDLGAVEKLIVFENLETIRYTFKDAEDNEVIKFAEPEAKDKSFAIDKATGQEMDVVSEEPLIEWLAANYKNFGATLEFITDKSSEGAQFVTGFGGIGAMLRYKVNFEQLVDESEDEYYDEDEGSDYDFI	~2	~22 % of the input
ABCE1/RLI1 (natural protein, yeast (endogenous in yeast cells), UniProt Q03195 1-608, looked up, source: endogenous, yeast whole cell extract) MSDKNSRIAIVSADKCKPKKCRQECKRSCPVVKTGKLCIEVTPTSKIAFISEILCIGCGICVKKCPFDAIQIINLPTNLEAHVTHRYSANSFKLHRLPTPRPGQVLGLVGTNGIGKSTALKILAGKQKPNLGRFDDPPEWQEIIKYFRGSELQNYFTKMLEDDIKAIIKPQYVDNIPRAIKGPVQKVGELLKLRMEKSPEDVKRYIKILQLENVLKRDIEKLSGGELQRFAIGMSCVQEADVYMFDEPSSYLDVKQRLNAAQIIRSLLAPTKYVICVEHDLSVLDYLSDFVCIIYGVPSVYGVVTLPASVREGINIFLDGHIPAENLRFRTEALQFRIADATEDLQNDSASRAFSYPSLKKTQGDFVLNVEEGEFSDSEILVMMGENGTGKTTLIKLLAGALKPDEGQDIPKLNVSMKPQKIAPKFPGTVRQLFFKKIRGQFLNPQFQTDVVKPLRIDDIIDQEVQHLSGGELQRVAIVLALGIPADIYLIDEPSAYLDSEQRIICSKVIRRFILHNKKTAFIVEHDFIMATYLADKVIVFEGIPSKNAHARAPESLLTGCNRFLKNLNVTFRRDPNSFRPRINKLDSQMDKEQKSSGNYFFLDNTGI	~58	
